Data: publication PMC10187114, “Structure of the endosomal Commander complex linked to Ritscher-Schinzel syndrome” (Cell, 2023)
Where a chain is given by its changes, count along the chain named. Names may count otherwise. “And” between values parts separate entries of the source, which are not always exact repeats. Equal values may be shown once.

Experiments:
DENND10 (recombinant) = molecular target: T1, DENND10 (recombinant) (human, UniProt Q8TCE6 1-357); assay: ITC; 50 μM DENND10 titrated into 10 μM wild type or mutant CCDC22(325–485)+CCDC93(310–488) complex, 100 mM Tris pH 7.4, 300 mM NaCl, 25°C, single site model; conditions: both partners purified
T1 construct: DENND10/FAM45A, human; also called FAM45A; recombinant DENND10; source: E. coli BL21 (DE3) (pGEX6P-1), purified (glutathione resin, gel filtration)
T1 sequence (Q8TCE6 whole entry): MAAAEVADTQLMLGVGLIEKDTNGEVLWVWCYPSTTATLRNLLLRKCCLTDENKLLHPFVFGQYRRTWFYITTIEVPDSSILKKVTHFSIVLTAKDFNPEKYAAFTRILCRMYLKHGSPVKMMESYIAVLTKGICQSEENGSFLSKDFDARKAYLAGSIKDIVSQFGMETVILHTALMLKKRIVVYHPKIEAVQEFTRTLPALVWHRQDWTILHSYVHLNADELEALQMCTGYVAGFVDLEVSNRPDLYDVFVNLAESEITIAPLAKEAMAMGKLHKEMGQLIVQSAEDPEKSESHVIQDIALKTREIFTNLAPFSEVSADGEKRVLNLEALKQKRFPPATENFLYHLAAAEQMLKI

VPS29 (recombinant) = VPS29 (recombinant) (human, UniProt Q9UBQ0 1-182); assay: ITC; VPS35L peptides at 600 μM titrated into 20 μM VPS29, 100 mM Tris pH 7.4, 300 mM NaCl, 25°C, single site model; conditions: both partners purified

B1: CC1-CC2 complex (CCDC22(325–485) + CCDC93(310–488)), wild type (complex, human)
chain 1: VTWAAQEQELESLREQLEGVNRSIEEVEADMKTLGVSFVQAESECRHSKLSTAEREQALRLKSRAVELLPDGTANLAKLQLVVENSAQRVIHLAGQWEKHRVPLLAEYRHLRKLQDCRELESSRRLAEIQELHQSVRAAAEEARRKEEVYKQLMSELETLP
chain 2: GTSQLHRRKVISLNKQIAQKTKHLEELRASHTSLQARYNEAKKTLTELKTYSEKLDKEQAALEKIESKADPSILQNLRALVAMNENLKSQEQEFKAHCREEMTRLQQEIENLKAERAPRGDEKTLSSGEPPGTLTSAMTHDEDLDRRYNMEKEKLYKIRLLQARRNREIAILHRKIDEV
notes: CCDC22, human, CC1 and CC2 coiled-coil regions; CCDC93, human, CC1 and CC2 coiled-coil regions; also called CCDC22-CCDC93; source: E. coli BL21 (DE3), co-expressed (pRSF-duet), purified (Talon, gel filtration)
Kd (DENND10 (recombinant)): 34 nM and 28 nM

B2: CC1-CC2 complex, CCDC93 (M392R) (complex, human)
chain 1: B1 chain 1
chain 2: B1 chain 2 with M83R
notes: CCDC22, human, CC1 and CC2 coiled-coil regions; CCDC93, human, CC1 and CC2 coiled-coil regions; source: E. coli BL21 (DE3), co-expressed (pRSF-duet), purified (Talon, gel filtration)
Kd (DENND10 (recombinant)): 89.1 ± 10 nM

B3: CC1-CC2 complex, CCDC22 (V360E) (complex, human)
chain 1: B1 chain 1 with V36E
chain 2: B1 chain 2
notes: as for B2
Kd (DENND10 (recombinant)): 47.9 ± 3.5 nM

B4: VPS35L (16-38) peptide (peptide)
peptide: EFASCRLEAVPLEFGDYHPLKPI
notes: VPS35L, human, residues 16-38; also called VPS35L peptide (Glu16-Ile38); source: synthetic peptide (Genscript)
Kd (VPS29 (recombinant)): 1870 nM
